According to patent US6878861B2, “Acyl coenzyme A thioesterases” (Washington State University Research Foundation, priority 2000, dated 2005):
Entries after “also recorded” stand apart in the source; their conditions may differ.

Assay: Acyl-CoA thioesterase assay with radiolabeled acyl-CoA, lysate of cells over-expressing ACH1
Assay type: biochemical
Conditions: lysate of transfected E. coli cells
Method: In these assays, radiolabeled acyl-CoA is used as a substrate in which the [^14C] label is on the fatty acid portion of the molecule, and the enzyme activity is measured by the amount of labeled free fatty acid released by the action of the enzyme. Typically, the acyl group is palmitoyl-CoA (16:0 Co-A) or oleoyl-CoA (18:1-CoA). Because the reaction pH must be below 9, as a pH above this level causes base-catalyzed hydrolysis of the substrate, in most experiments the enzyme activity is measured between pH 7 and 9. The reactions are conducted at room temperature. The reaction volume is generally kept from about 32 μl to 100 μl. Although the reaction times may vary, typical incubation times are 10-15 minutes, which is sufficient for even small amounts of protein.
The protein solution to be assayed, which can be purified protein over-expressed in E. coli or unpurified protein in a plant extract or a plant subfraction, such as purified chloroplasts, is brought to the desired volume with buffer (20 mM Tris-HCl, pH 7.2, 200 mM NaCl and 1 mM EDTA). […] An 850 μl aliquot of the hexane phase is added to 3 ml BCS, and the amount of radioactivity determined in a scintillation counter.
The level of acyl-CoA thioesterase activity is determined by the amount of radioactivity that is found in the hexane phase. […]

B1: ACH1: Arabidopsis acyl-CoA thioesterase ACH1 (SEQ ID NO:5), expressed as fusion protein with a 6 histidine tag; assayed as cell lysate (protein, listed as Arabidopsis thaliana)
chain: MNTESVVEFLGNVTLLQRLPSSSLKRISEVVVFKGYDRGDYVVRENQNVDGVYFLLQGQAQVLRSAGEENYQEFPLKRYDFFGHGIFGDVYSADVVAVTELTCLLLMSDHRALLEIKSVSDSDKERCLVEDILYLEPLDLNVYRGFTPPNAPTYGKVYGGQLVGQALAAASKTVETMKIVHNFHCYFLLVGDINIPIIYDVNRLRDGNNFATRSVDARQKGKTIFTLFASFQKKQQGFIHQESTMPHTPAPETLLPREEMLERLVTEPLLPRDYRNQVATEISVPFPIDIRFCEPNRSTKQNKSPPRLKYWFRAKGKLSDDDQALHRCVVAFASDLIFATISLNPHRREGMSVAALSLDHSMWFHRPVRADDWLLFVIVSPTATESRGFATGKMFNRKGELVVSLTQEAVLREAVTIKPSFGAKL
acyl-CoA thioesterase activity of cell lysate compared with control plasmid cells: no increased acyl-CoA thioesterase activity was observed in cell lysates; also recorded: no greater than the level of activity in cells transfected with a control plasmid
